Results taken from patent US20260242478A1 (published 2026).
Where no end group is shown, it is not given here.

B1: Phage-3237 (peptide)
peptide: EYHKCIPEWMCAGF
modifications: cysteine pairing not given here; also: fused to phage pIII, fusion site not given here
notes: also called Peptide-180 library clone
B2: Phage-3233 (peptide)
peptide: PYAMCEPAWMCSGF
modifications: cysteine pairing not given here; also: fused to phage pIII, fusion site not given here
notes: as for B1
B3: Phage-3236 (peptide)
peptide: PLPMCVPAWMCAGF
modifications: cysteine pairing not given here; also: fused to phage pIII, fusion site not given here
notes: as for B1

Columns and labels:
[1] = target: T1, PSMA Fab; assay: clonal phage ELISA on biotinylated PSMA Fab captured on neutravidin plates, anti-M13 HRP detection;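 also: crude clonal phage supernatants tested, before phage were added, wells were pretreated with PSMA antigen in blocking buffer or with blocking buffer only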
T1 construct: In the phage ELISA the PSMA Fab was biotinylated and captured on neutravidin coated plates; also called Anti-PSMA Fab; 006 PSMA Fab
Experimental: (§1) Clonal phage were harvested as crude supernatants and screened via standard ELISAs. […] Prior to the addition of clonal phage. wells were incubated with blocking buffer and PSMA antigen or blocking buffer alone. Without washing or aspirating, clonal phage supernatants were then added to the wells and incubated for a short time. Wells were then washed followed by detection of bound phage using a horse radish conjugated anti-M13 antibody.

[2] = target: T2, PSMA Fab; assay: phage ELISA, clonal phage on biotinylated PSMA Fab captured on neutravidin plate, anti-M13 HRP detection;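 also: crude clonal phage supernatants added to wells preincubated with PSMA antigen in blocking buffer or with blocking buffer only, giving a competition and a no-competitor control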
T2 construct: In the phage ELISA the PSMA Fab was biotinylated and captured on neutravidin coated plates; also called anti-PSMA Fab; 006 PSMA Fab
Experimental: as §1

[3] = target: T2, PSMA Fab; assay: phage ELISA, clonal phage on captured PSMA Fab pre-incubated with PSMA antigen as competitor, anti-M13 HRP detection
Experimental: as §1

[4] = target: T3, PSMA Fab; assay: clonal phage ELISA; biotinylated PSMA Fab on neutravidin plate, wells first incubated with PSMA antigen as competitor; anti-M13 HRP detection
T3 construct: also called Anti-PSMA Fab; 006 PSMA Fab
Experimental: as §1

[5] = target: T3, PSMA Fab; assay: clonal phage ELISA; biotinylated PSMA Fab on neutravidin plate, blocking buffer alone; anti-M13 HRP detection;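 also: crude clonal phage supernatants added without washing to wells pretreated with blocking buffer with or without PSMA antigen, short incubation, then washed before detecting bound phage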
Experimental: as §1

[6] = target: T4, PSMA Fab (biotinylated (site not stated)); assay: as above
T4 construct: The panning ELISA names only 'biotinylated PSMA Fab' captured on neutravidin coated plates; also called Anti-PSMA Fab; 006 PSMA Fab

[7] = target: T4, PSMA Fab; assay: clonal phage ELISA; biotinylated PSMA Fab on neutravidin plate, wells pre-incubated with PSMA antigen as competitor; anti-M13 HRP detection;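 also: crude clonal phage supernatants added to antigen-treated wells without a wash, incubated briefly, then bound phage read out via horse radish–conjugated anti-M13 antibody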
Experimental: as §1

| Binder | Phage binding ELISA signal, Anti-PSMA Fab [1] | Phage binding ELISA signal, Anti-PSMA Fab [2] | Phage binding ELISA signal, Anti-PSMA Fab in presence of PSMA [3] | further results |
| --- | --- | --- | --- | --- |
| EMFRCTPEWMCAGL (cysteine pairing not given here; also: fused to pIII of bacteriophage) [Phage-3307] | 1.87 | – | – | – |
| AALRCVPTWMCEGF [Phage-3404] | – | 1.79 | 0.0793 | – |
| EIVKCVPPWMCSGI [Phage-3469] | – | – | – | phage binding ELISA signal, Anti-PSMA Fab in the presence of PSMA [4]: 0.0727; Phage binding ELISA signal, Anti-PSMA Fab [5]: 1.73 |
| HDAMCKPAWMCAGF [Phage-3299] | 1.88 | – | – | – |
| VAVMCRPAWMCYGF [Phage-3297] | 1.88 | – | – | – |
| EIKHCIPEWMCSGF (cysteine pairing not given here; also: fused to pIII of bacteriophage) [Phage-3464] | – | – | – | phage binding ELISA signal, Anti-PSMA Fab in the presence of PSMA [4]: 0.104; Phage binding ELISA signal, Anti-PSMA Fab [5]: 1.74 |
| FERLCIPEWMCSAF [Phage-3400] | – | 1.8 | 0.102 | – |
| IVKACKPEWMCVGF (also called Peptide-180 library clone) [Phage-3232] | – | – | – | Phage binding ELISA signal, Anti-PSMA Fab [6]: 1.95; Phage binding ELISA signal, Anti-PSMA Fab with PSMA antigen [7]: 0.0754 |
| DGIRCVPNWMCVGF (also called Peptide-180 library clone) [Phage-3234] | – | – | – | Phage binding ELISA signal, Anti-PSMA Fab [6]: 1.95; Phage binding ELISA signal, Anti-PSMA Fab with PSMA antigen [7]: 0.0969 |
| VERLCMPEWMCLGF (also called Peptide-180 library clone) [Phage-3235] | – | – | – | Phage binding ELISA signal, Anti-PSMA Fab [6]: 1.95; Phage binding ELISA signal, Anti-PSMA Fab with PSMA antigen [7]: 0.126 |
| VERYCVPQWMCDGF [Phage-3403] | – | 1.8 | 0.117 | – |
| WEHRCTPEWMCTGF (also called Peptide-180 library clone) [Phage-3238] | – | – | – | Phage binding ELISA signal, Anti-PSMA Fab [6]: 1.94; Phage binding ELISA signal, Anti-PSMA Fab with PSMA antigen [7]: 0.0937 |
| TEVMCRPLWMCAGF [Phage-3295] | 1.89 | – | – | – |
| LEAACRPMWMCLGF (cysteine pairing not given here; also: fused to pIII of bacteriophage) [Phage-3466] | – | – | – | phage binding ELISA signal, Anti-PSMA Fab in the presence of PSMA [4]: 0.0664; Phage binding ELISA signal, Anti-PSMA Fab [5]: 1.73 |
| SVPSCVPPWMCIGF [Phage-3471] | – | – | – | phage binding ELISA signal, Anti-PSMA Fab in the presence of PSMA [4]: 0.0613; Phage binding ELISA signal, Anti-PSMA Fab [5]: 1.73 |
| EHYACKPEWMCAGF (cysteine pairing not given here; also: fused to pIII of bacteriophage) [Phage-3304] | 1.87 | – | – | – |
| FGIYCVPEWMCTGL [Phage-3397] | – | 1.8 | 0.0891 | – |
| WEARCQPTWMCTGF (cysteine pairing not given here; also: fused to pIII of bacteriophage) [Phage-3467] | – | – | – | phage binding ELISA signal, Anti-PSMA Fab in the presence of PSMA [4]: 0.0667; Phage binding ELISA signal, Anti-PSMA Fab [5]: 1.73 |
| B1 | – | – | – | Phage binding ELISA signal, Anti-PSMA Fab [6]: 1.94; Phage binding ELISA signal, Anti-PSMA Fab with PSMA antigen [7]: 0.0924 |
| ETHFCKPKWMCVGF (cysteine pairing not given here; also: fused to pIII of bacteriophage) [Phage-3465] | – | – | – | phage binding ELISA signal, Anti-PSMA Fab in the presence of PSMA [4]: 0.0927; Phage binding ELISA signal, Anti-PSMA Fab [5]: 1.74 |
| MPPVCIPRWMCEGF [Phage-3301] | 1.88 | – | – | – |
| HSALCIPSWMCQGF [Phage-3305] | 1.87 | – | – | – |

| Binder | Phage binding ELISA signal, Anti-PSMA Fab [1] | Phage binding ELISA signal, Anti-PSMA Fab [2] | Phage binding ELISA signal, Anti-PSMA Fab in presence of PSMA [3] | further results |
| --- | --- | --- | --- | --- |
| VDRFCEPIWMCIGF [Phage-3306] | 1.87 | – | – | – |
| ETFKCVPEWMCTGL [Phage-3298] | 1.88 | – | – | – |
| FRDYCVPPWMCVGM [Phage-3401] | – | 1.8 | 0.0791 | – |
| VESMCKPAWMCIGF [Phage-3300] | 1.88 | – | – | – |
| ASVLCVPAWMCSGF [Phage-3395] | – | 1.8 | 0.0808 | – |
| VTAYCVPPWMCAVF (also called Peptide-180 library clone) [Phage-3231] | – | – | – | Phage binding ELISA signal, Anti-PSMA Fab [6]: 1.95; Phage binding ELISA signal, Anti-PSMA Fab with PSMA antigen [7]: 0.102 |
| GFPWCEPQWMCIGF [Phage-3396] | – | 1.8 | 0.114 | – |
| B2 | – | – | – | Phage binding ELISA signal, Anti-PSMA Fab [6]: 1.95; Phage binding ELISA signal, Anti-PSMA Fab with PSMA antigen [7]: 0.0697 |
| VDQVCIPDWMCNGF [Phage-3470] | – | – | – | phage binding ELISA signal, Anti-PSMA Fab in the presence of PSMA [4]: 0.0771; Phage binding ELISA signal, Anti-PSMA Fab [5]: 1.73 |
| ENHYCRPAWMCNGF [Phage-3393] | – | 1.8 | 0.106 | – |
| TNPMCVPEWMCYGF [Phage-3468] | – | – | – | phage binding ELISA signal, Anti-PSMA Fab in the presence of PSMA [4]: 0.0628; Phage binding ELISA signal, Anti-PSMA Fab [5]: 1.73 |
| IELMCRPLWMCMGF [Phage-3398] | – | 1.8 | 0.0966 | – |
| ITVICKPAWMCEFL [Phage-3394] | – | 1.8 | 0.0613 | – |
| EVLLCKPEWMCTGF (cysteine pairing not given here; also: fused to pIII of bacteriophage) [Phage-3463] | – | – | – | phage binding ELISA signal, Anti-PSMA Fab in the presence of PSMA [4]: 0.0669; Phage binding ELISA signal, Anti-PSMA Fab [5]: 1.74 |
| B3 | – | – | – | Phage binding ELISA signal, Anti-PSMA Fab [6]: 1.95; Phage binding ELISA signal, Anti-PSMA Fab with PSMA antigen [7]: 0.133 |
| TEILCVPEWMCIGL [Phage-3392] | – | 1.8 | 0.0705 | – |
| TQALCKPAWMCKGF [Phage-3399] | – | 1.8 | 0.0703 | – |
| VVIQCQPAWMCDGF [Phage-3296] | 1.88 | – | – | – |
| QFLVCKPSWMCNGF [Phage-3402] | – | 1.8 | 0.0882 | – |
| MLLQCKPSWMCAGF [Phage-3302] | 1.87 | – | – | – |
| GWPVCVPPWMCDGF [Phage-3303] | 1.87 | – | – | – |
